From CN111484562A come the findings set out here.

A value given as a limit tells only on which side of the number the result lay.

In the test the target is 人CD22(hCD22)蛋白 (human) (UniProt P20273). The test can be described thus: phage ELISA, 0.5 ug/ml hCD22 coated, phage supernatant, anti-M13-HRP.
UniProt P20273, sequence (P20273 20-687 limits assumed): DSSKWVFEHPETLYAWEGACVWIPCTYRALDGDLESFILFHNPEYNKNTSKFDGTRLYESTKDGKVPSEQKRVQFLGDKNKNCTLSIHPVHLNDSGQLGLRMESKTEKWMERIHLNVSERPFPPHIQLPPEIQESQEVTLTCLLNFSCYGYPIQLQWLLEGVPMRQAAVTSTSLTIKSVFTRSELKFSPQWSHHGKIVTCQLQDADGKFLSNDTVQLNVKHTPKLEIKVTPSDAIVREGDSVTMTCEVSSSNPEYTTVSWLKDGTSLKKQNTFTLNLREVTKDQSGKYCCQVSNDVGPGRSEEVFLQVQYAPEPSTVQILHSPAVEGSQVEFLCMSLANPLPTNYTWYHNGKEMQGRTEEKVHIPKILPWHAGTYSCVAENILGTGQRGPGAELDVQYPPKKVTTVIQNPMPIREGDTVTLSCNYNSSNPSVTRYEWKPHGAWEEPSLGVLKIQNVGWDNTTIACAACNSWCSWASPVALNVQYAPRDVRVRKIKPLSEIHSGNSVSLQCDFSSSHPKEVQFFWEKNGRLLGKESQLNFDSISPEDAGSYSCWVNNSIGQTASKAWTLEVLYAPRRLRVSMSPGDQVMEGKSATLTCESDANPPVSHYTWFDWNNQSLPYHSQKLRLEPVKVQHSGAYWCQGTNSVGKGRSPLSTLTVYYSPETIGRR

B1: CD22抗体 (scFv单链抗体, 抗CD22) (scFv)
scFv: DIVMTQSPSSLSASVGDRVTITCRASQSINNYLNWYQQKPGKAPKLLISAASSLQSGVPSRFSGSGSGTDFTLTISSLQPEDFATYYCQQSYTTPLTFGGGTKVEIRGSTSGSGKPGSGEGSTKGQVQLQQSGPGLVESSQILSLTCAISGDSVSSNSATWNWIRLSPSRGLEWLGRTYYRSTWYNDYPASVKGRIIIDPDTSKNQFSLLLSSVTPEDTAVYYCARELVPRGATIGFDYWGQGTLVTVSS
In turn, B1 yielded an OD450 greater than 1.5 OD450.
